In patent publication US12043671B2, “Antibodies targeting an amphiregulin-derived cell surface neo-epitope” (Gundersen Lutheran Medical Foundation, Inc., priority 2021, dated 2024):

Key:
cleaved-AREG peptide = molecular target: T1, cleaved-AREG peptide (Homo sapiens, UniProt P15514); experiment: ELISA binding of 1A3 and 1A3-VC-PAB-MMAE to cleaved-AREG peptide; conditions: 0.001-1 μg/mL
T1 construct: host or cells: synthetic peptide
Method: Maxisorp flat bottom 96-well plates (Thermo Fisher Scientific) were coated with 5 μg/mL cleaved-AREG peptide at 4° C. overnight. After washing thrice with PBST (PBS with 0.05% Tween20) and blocking for 2 h at RT with 5% non-fat dry milk in PBST, various concentrations of 1A3 and 1A3-VC-PAB-MMAE (0.001, 0.01, 0.1, 1 μg/mL) were added to the wells and incubated for 2 h at RT. The wells were washed four times with PBST and were incubated at RT with Goat anti-rabbit IgG (H+L) Cross-adsorbed-HRP conjugate secondary Ab (ThermoFisher G-21234) for 1 h. One-Step™ Turbo™ B-ELISA Substrate Solution (Thermo Fisher Scientific) was added to the wells for color development, incubated for 15 min and the reaction was stopped by adding 2 M H2SO4.

[1] = molecular target: T2, Trunc AREG (fragment that remains cell-bound after cleavage by ADAM17) (Homo sapiens, UniProt P15514); experiment: Immunoblot of TRF-conjugated AREG peptides, cleaved mimic; assay type: binding; conditions: 1 μg/mL antibody, 200 ng TRF-conjugated peptide
T2 construct: host or cells: synthetic peptide conjugated to transferrin
Method: (§1) Monomethyl auristatin E (MMAE) conjugated 1A3 antibody (1A3-VC-PAB-MMAE) was prepared using a kit (CM11409) from CellMosaic Inc. (Woburn, MA, USA) following the manufacturer's instructions. Maleimide-activated valine-citrulline p-aminobenzylcarbamate (VCPAB) MMAE was coupled directly to the antibody after reduction through alkylation.^13 The specificity of 1A3 and 1A3-VC-PAB-MMAE to peptides representing human cleaved-AREG was confirmed by immunoblotting. Briefly, transferrin (TRF) conjugated peptides representing cleaved and uncleaved AREG (200 ng) were electrophoresed on SDS-PAGE gels, transferred to PVDF membrane and probed with 1 μg/mL of 1A3 and 1A3-VC-PAB-MMAE. Horseradish peroxidase-conjugated goat anti-rabbit IgG was used. Antibody binding was detected with enhanced chemiluminescence (ECL; Amersham, Arlington Heights, IL, USA). Furthermore, the characterization and purity of 1A3-VC-PAB-MMAE were analyzed using hydrophobic interaction chromatography (HIC) and size-exclusion chromatography (Cell Mosaic).

[2] = molecular target: T3, FL AREG (peptide representing uncleaved AREG) (Homo sapiens, UniProt P15514); experiment: Immunoblot of TRF-conjugated AREG peptides, intact cleavage site; assay type: binding; conditions: 1 μg/mL antibody, 200 ng TRF-conjugated peptide
T3 construct: a peptide spanning this region (SMKTHSMIDSSLSKIAC); host or cells: synthetic peptide conjugated to transferrin
Method: as §1

MCF7 cells = experiment: Clonogenic assay; assay type: cell-based, human; conditions: MCF7, 25 or 50 nM, 72 h then 14 days
Method: (§2) MCF7 breast cancer cells were plated in 48-well plates, allowed to attach overnight and treated with 12.5, 25 or 50 nM of 1A3-VC-PAB-MMAE for 72 h. A vehicle treated well served as control. After removing the ADC-containing medium, cells were washed using PBS, trypsinized and plated at a density of 1000 cells/well in 12-well plates. The cells were cultured for 14 days, with fresh medium addition every 3 days. The colonies were stained with 0.5% crystal violet solution. The number of colonies per well was counted.

MCF7-F cells = experiment: Clonogenic assay; assay type: cell-based, human; conditions: 25 or 50 nM, 72 h then 14 days
Method: as §2

MCF-7 cells = experiment: Tubulin staining (microtubule integrity); assay type: cell-based, human; conditions: 48 h treatment
Method: FIGS. 4A-4E. In vitro 1A3-MMAE cytotoxicity in MCF-7 (FIG. 4A) and MCF-7F (FIG. 4B) cells measured by MTT assay after treatment with 1A3-MMAE, 1A3 or MMAE. FIG. 4C: Clonogenic growth of MCF-7 or MCF-7F cells after exposure to 1A3-MMAE and replating. FIG. 4D: The quantification of clonogenic growth assays in FIG. 4C. (FIG. 4E). Tubulin staining of MCF-7 cells after 48 h treatment with MMAE, 1A3, 1A3-MMAE (40× magnification).

MCF7 xenografts = experiment: Orthotopic MCF7 breast cancer xenograft in NSG mice; assay type: in vivo, mouse
Description: (§3) In Vivo Antitumor Activity Studies: The animal experiments were approved by the Institutional Animal Care and Use Committee of University of Wisconsin La Crosse (La Crosse, Wisconsin, USA). Four-week-old female NOD.Cg-Prkdc^scid II2rg^tm1Wjl/SzJ mice (NSG; The Jackson Laboratory) were acclimated for 1 week before the experiments. For MCF7 breast cancer xenograft model, the mice were implanted subcutaneously with 0.72-mg 17β-estradiol 90-day release tablets (Innovative Research of America) 3 days prior to cell injection. […] Firefly luciferase expressing MCF7 and MCF7-F cells (2×10^6 cells in a 1:1 mixture of serum-free DMEM and Matrigel) were injected orthotopically into the fourth inguinal mammary fat pad of each mouse. Once the tumors were well established, each cell line cohort was divided into three groups (n=5). Mean tumor volume at the start of treatment was 111 mm^3 for the MCF7 cohorts and 119 mm^3 for the MCF7-F cohorts. The mice were treated by intraperitoneal injection every 4 days for a total of six doses with unconjugated or MMAE conjugated anti-cleaved-AREG 1A3 antibody (5 mg/kg), or vehicle control (PBS). Tumor volumes were calculated from caliper data by using the formula: Volume (mm^3)=(Length×Width^2)/2. Mice were imaged weekly with the in vivo FX PRO imaging system (Carestream Molecular Imaging, Woodbridge, CA, USA) after injecting luciferin (150 mg/kg body weight). Tumor volume and body weight were monitored once a week. Statistical Analysis:
(§4) To test in vivo efficacy of 1A3-MMAE, human breast cancer cell lines expressing luciferase were injected orthotopically into NSG mice (one tumor in each inguinal mammary gland). Once the average tumor size reached approximately 100-125 mm^3, mice were randomized to one of three treatment groups: PBS, 1A3 (5 mg/kg) or 1A3-MMAE (5 mg/kg). Mice received intraperitoneal injections every 4 days for six total injections and were monitored for tumor progression or regression. Similar experiments were performed with MCF7 (FIGS. 5A, 5B, and 5C, left panels) and MCF7-F (FIGS. 5A, 5B, and 5C, right panels) xenografts.

MCF7-F xenografts = experiment: Orthotopic MCF7-F endocrine-resistant xenograft in NSG mice; assay type: in vivo, mouse
Description: as §3, §4

MCF7 breast cancer cells = experiment: MTT cytotoxicity assay; conditions: MCF7, 1.56-200 nM, 72 h
Method: (§5) The cells were seeded at a density of 5000 cells/well in 96-well plates. Approximately 24 h after cell seeding, the cells were treated with varying doses (1.56, 3.125, 6.25, 12.5, 25, 50, 100 and 200 nM) of MMAE, 1A3 and 1A3-VC-PAB-MMAE. Untreated cells were used as control. After incubating for 72 h, the medium was aspirated and 50 μL of serum-free media and 50 μL of MTT solution (5 mg/mL solution in PBS) was added into each well; the cells were then incubated for 3 h at 37° C. The formazan crystals formed were dissolved with 4 mM HCl, 0.1% NP40 in isopropanol. The absorbance was measured at 590 nm using VersaMax Microplate Reader (Molecular Devices LLC, San Jose, California, USA). The assays were performed in triplicate.

[3] = system: MCF7-F (fulvestrant-resistant MCF7) breast cancer cells; experiment: MTT cytotoxicity assay; conditions: 1.56-200 nM, 72 h
Method: as §5

B1: 1A3-MMAE: Monomethyl auristatin E (MMAE) conjugated 1A3 antibody via valine-citrulline p-aminobenzylcarbamate linker (conjugate)
VH: QSVKESEGRLVTPGTPLRLTCTVAGYSLSRYHMCWVRQAPGKGLEWIGMIGGSGRTDYASWAKGRFTISKTSTTVDLKITSPTTEDTATYFCSTVYTDSDGDFWGPGTLVTVSS
VL: AELDMTQTPSSKSVPVGGTVTINCQASESVYSNDRLAWFQQKPGQPPKLLIYYASTLASGVPSRFKGSGSGTQFTLTISDLECADAATYYCQSCYDMSSYGVAFGGGTELEIL
- binding to cleaved AREG peptide, unconjugated vs MMAE-conjugated (cleaved-AREG peptide): no substantial difference in binding
- recognition of truncated AREG peptide by immunoblot [1]: specifically recognized
- reaction with peptide representing uncleaved AREG by immunoblot [2]: did not react
- clonogenic survival (number of colonies relative to control) (MCF7 cells): dose-dependent effect on survival
- clonogenic survival (number of colonies relative to control) (MCF7-F cells): dose-dependent effect on survival
- tubulin disruption (microtubule integrity) (MCF-7 cells): exhibited tubulin disruption
- longitudinal luciferase imaging of xenografts (MCF7 xenografts; MCF7, 5 mg/kg): decreased in both volume and signal
- xenografts in which tumor volume decreased (maximum response) (MCF7 xenografts; MCF7, 5 mg/kg): 8/10
- xenografts in which tumor volume increased (maximum response) (MCF7 xenografts; MCF7, 5 mg/kg): 2/10
- tumor volume response by caliper measurements (MCF7 xenografts; MCF7, 5 mg/kg i.p. every 4 days, six doses): strong tumor shrinkage
- longitudinal luciferase imaging of xenografts (MCF7-F xenografts; 5 mg/kg): decreased in both volume and signal
- tumor volume response by caliper measurements (MCF7-F xenografts; 5 mg/kg i.p. every 4 days, six doses): strong tumor shrinkage
- xenografts cleared to sub-detectable levels (MCF7-F xenografts; 5 mg/kg, 10 xenografts): 10
- tumors recurred after follow-up (MCF7-F xenografts; 5 mg/kg, 204-day follow-up period): 10/10
- tumors returned to a size seen prior to treatment (MCF7-F xenografts; 204-day follow-up): only one tumor
- re-appearance of a lesion after the end of dosing (representative animal) (MCF7-F xenografts; luciferase imaging): 70 days
- cytotoxicity by MTT assay (MCF7 breast cancer cells): considerable cytotoxicity
- cytotoxicity by MTT assay [3]: considerable cytotoxicity
